Measurements from patent publication US20200016315A1 (SYDDANSK UNIVERSITET, published 2020).
Residue numbers refer to the chain shown, from its start. Names may count otherwise.

B1: IsdH^N1 (residues 86-229) with N-terminal His6 tag and thrombin cleavage site (receptor)
chain: DIGPREQVNFQLLDKNNETQYYHFFSIKDPADVYYTKKKAEVELDINTASTWKKFEVYENNQKLPVRLVSYSPVPEDHAYIRFPVSDGTQELKIVSSTQIDDGEETNYDYTKLVFAKPIYNDPSL
modifications: coupled through primary amines to CNBr-activated Sepharose
notes: also called N1 Seph; not shown: added N-terminal His6 tag and thrombin cleavage site
B2: IsdH N1N2N3 (residues 82-655), wild type (receptor)
chain: NYPAADESLKDAIKDPALENKEHDIGPREQVNFQLLDKNNETQYYHFFSIKDPADVYYTKKKAEVELDINTASTWKKFEVYENNQKLPVRLVSYSPVPEDHAYIRFPVSDGTQELKIVSSTQIDDGEETNYDYTKLVFAKPIYNDPSLVKSDTNDAVVTNDQSSSVASNQTNTNTSNQNISTINNANNQPQATTNMSQPAQPKSSTNADQASSQPAHETNSNGNTNDKTNESSNQSDVNQQYPPADESLQDAIKNPAIIDKEHTADNWRPIDFQMKNDKGERQFYHYASTVEPATVIFTKTGPIIELGLKTASTWKKFEVYEGDKKLPVELVSYDSDKDYAYIRFPVSNGTREVKIVSSIEYGENIHEDYDYTLMVFAQPITNNPDDYVDEETYNLQKLLAPYHKAKTLERQVYELEKLQEKLPEKYKAEYKKKLDQTRVELADQVKSAVTEFENVTPTNDQLTDLQEAHFVVFESEENSESVMDGFVEHPFYTATLNGQKYVVMKTKDDSYWKDLIVEGKRVTTVSKDPKNNSRTLIFPYIPDKAVYNAIVKVVVANIGYEGQYHVRIINQDI
modifications: coupled through primary amines to CNBr-activated Sepharose
notes: In the assay the protein was immobilized on Sepharose; also called IsdH N1N2N3 wt; N1N2N3-Seph; not shown: vector-encoded His6 tag of pET-15b
B3: IsdH N1N2N3 Y642A (receptor)
chain: B2 chain with Y561A
modifications: coupled through primary amines to CNBr-activated Sepharose
notes: also called N1N2N3-Y642A-Seph; Y642A mutant; not shown: vector-encoded His6 tag of pET-15b

Target: T1, hemoglobin (human, UniProt P69905 2-142; P68871 2-147)
T1 construct: also called Hb; human Hb
Assay: raw plasma without added hemoglobin mixed with equal volume of protein-Sepharose, supernatant on Cobas 6000; not corrected for dilution; no Sepharose 7, sham Sepharose 0

Row | Binder | H-index of supernatant (hemoglobin left after removal) [mg/dL]
1 | B1 | 0
2 | B2 | 0
3 | B3 | 0

Target: T1, hemoglobin
Assay: plasma with 3 g/l added hemoglobin mixed with equal volume of protein-Sepharose, supernatant on Cobas 6000; not corrected for dilution; no Sepharose 80, sham Sepharose 25

Row | Binder | H-index of supernatant (hemoglobin left after removal) [mg/dL]
4 | B1 | 29
5 | B2 | 12
6 | B3 | 8
